# Experimental data reported in IntAct's records for PubMed 30323948.
# B1: Subversion of eukaryotic traffic protein A (Legionella pneumophila subsp. pneumophila), Q5ZU30 (parent)
# chain: MYKIYSYLGWRIDMKTENLPQAGQEAQIDKKIHFIWVGHIMPQKNIQVVSEWAEKNPGYETIIWVDKKIAPAKELDLFILDMKSKGITVKDINEEGVCRDSIRHELDQESPNYGMVSDMLRLNILAAEGGIYLDSDILCSAPFPDEIYAPFGFLLSPWSQGANNTLCNDIILCSKGNQIIQQLADAIEQSYIARDSFEFTHEYASMKETKGERIAKTLGVTGPGFLFHQLKKMGILNDKSEMEAIHWELQDQRYLIDGSVKEPDYFYVPQNNTNDASWVPSIKRPGIENMSFQERLENAVQLIAFDIQKTGLFNLDHYANELKVKQNSWCIAAETSPELKPDSYLLIRPRDKTGEWTLYYVDEDKKLNPVTLPVIKGAIKLSEVSDPLRKFHTLLSQVSDPVNPTAHELKQIGRALIELKPRQDEWHCKNKWSGAEEIAQELWQRITSNETLRAQIKQCFTQFESLKPRVAELGLTRASGAGTEVEAHESTVKEQEIISQNTVGEEGTKEKNSVQLASENSSDEKIKTAHDLIDEIIQDVIQLDGKLGLLGGNTRQLEDGRVINIPNGAAMIFDDYKKYKQGELTAESALESMIKIAKLSNQLNRHTFFNQRQPETGQFYKKVAAIDLQTTIAAEYDNNHGLRI
# Variants of: B1
# Settings: with rab1a_human RAB1A
row,Variant,effect of a mutation on the interaction
1,D134A;D136A,disrupting interaction

# Variants of: B1
# Settings: with rab7a_human RAB7A
row,Variant,effect of a mutation on the interaction
1,D134A;D136A,disrupting interaction
